Experimental data as given in article PMC3854531.

Biological target: sDMA-containing peptide (Bio-…[sDMA]G[sDMA]G[sDMA]G[sDMA]KPN)
Assay: SPR

Substance: His-tagged N-terminal deleted BmPAPI (ΔN-BmPAPI: amino acids 48–629) (domain or fragment)
- Kd: 27 µM
